Target: T1, murine PD-1 receptor (mouse, UniProt Q02242 25-288)
T1 construct: Endogenous protein in tissue lysates, detected as a 50 kDa band on a western blot; also called mouse PD-1; mouse PD-1 receptor
T1 sequence (looked up): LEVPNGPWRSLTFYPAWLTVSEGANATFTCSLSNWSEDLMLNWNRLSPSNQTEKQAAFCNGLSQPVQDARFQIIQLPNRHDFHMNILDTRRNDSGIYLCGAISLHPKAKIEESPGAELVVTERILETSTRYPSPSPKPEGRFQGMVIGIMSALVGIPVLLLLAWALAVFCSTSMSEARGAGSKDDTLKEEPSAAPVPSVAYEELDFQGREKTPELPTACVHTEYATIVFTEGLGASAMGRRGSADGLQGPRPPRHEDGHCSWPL
Test: western blot of mouse liver and lung lysates probed with nivolumab

B1: human recombinant Nivolumab (Thermofischer MA5-41974) (antibody, human IgG4 S228P, kappa, V domains shown)
VH: QVQLVESGGGVVQPGRSLRLDCKASGITFSNSGMHWVRQAPGKGLEWVAVIWYDGSKRYYADSVKGRFTISRDNSKNTLFLQMNSLRAEDTAVYYCATNDDYWGQGTLVTVSS
VL: EIVLTQSPATLSLSPGERATLSCRASQSVSSYLAWYQQKPGQAPRLLIYDASNRATGIPARFSGSGSGTDFTLTISSLEPEDFAVYYCQQSSNWPRTFGQGTKVEIKR
notes: Bought reagent, described as a fully humanized monoclonal antibody produced in mammalian cells such as HEK293; also called human Nivolumab; mammalian cell produced nivolumab (anti-PD1)
- binding result: binds

— patent publication EP4613280A1 (Plantibodies, dated 2025)
